The record followed here is article PMC10948894, “Cryo-EM structures of type IV pili complexed with nanobodies reveal immune escape mechanisms” (Nature Communications, 2024).

Changes are numbered by the printed parent chain. Numbers in names are those of the source.

In experiment [1] the target is type IV pili of N. meningitidis 8013, SB sequence type pilin PilE with GATDH on S63 and G3P on S69 (Neisseria meningitidis).
For experiment [2] the target is unchanged. In words: cryo-EM structure; purified pili 10 µg/ml with nanobody 50 µg/ml, vitrified at 4 °C; helical refinement.
Experiment [3] has as its target T1, type IV pili of the N. meningitidis 8013 pglAON* strain (SB pilin with the GATDH-Gal double sugar on S63) (Neisseria meningitidis 8013 (serogroup …, strain, GATDH with a second sugar (galactose in position 3) on serine 63)).
T1 construct: numbers count on: the mature protein; also called GATDH-GLA; GATDH-GAL variant
T1 chain: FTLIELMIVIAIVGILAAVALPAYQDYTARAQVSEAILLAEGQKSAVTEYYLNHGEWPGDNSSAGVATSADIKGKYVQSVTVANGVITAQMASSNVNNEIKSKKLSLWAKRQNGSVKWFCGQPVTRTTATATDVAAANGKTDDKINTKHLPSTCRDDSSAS
In words: immunostaining of cells or tissue; as a1 but nanobody 5 µg/ml and anti-His tag 17.5 µg/ml (experiments with C24_S112-114G, Fig. 7f and g). The note with it: one partner purified.

B1: F10 nanobody (VHH)
VHH: QLQLVESGGGLVQPGGSLRLSCAASGFTLDQYAIGWFRQAPGKEREGVSCISSRGGATNYAHSVKGRFTISRDNAKNTVYLQMNSLKPEDTAVYYCAAGVYTIVTGTGPEDGMDYWGKGTLVTVSS
As for B1, the inhibition of type IV pili-dependent bacterial auto-aggregation (blocks the pilus-pilus interaction, m1 with m1); indicated amounts of nanobody, Fig. 3c in experiment [1] was found to be 5 µg/mL. Also, the stoichiometry N in experiment [2] is 1.

B2: C24 nanobody (VHH)
VHH: QLQLVESGGGLVQPGGSLRLSCASSGFRSDYYAIVWFRQAPGKEREGVSCISTSGKTTIYADSVKGRFTISRDNAKNTVYLQMNSLKPEDTAVYYCAADFRGSRLSDVCSYSSMDYWGKGTLATVSS
B2 had an inhibition of type IV pili-dependent bacterial auto-aggregation (blocks the pilus-pilus interaction, m1 with m1); indicated amounts of nanobody, Fig. 3c in experiment [1] of 5 µg/mL. Besides, in experiment [2], the stoichiometry N turned out to be 1.

B3: C24_S112-114G nanobody (VHH)
VHH: B2 VHH with S110G, S112G
notes: as the chain of m8 (C24) with the two stated changes; also called C24 S112G S114G double mutant; source: E. coli BL21 (DE3)/pLysS (plasmid pET26b-C24 mutated), purified; not shown: His tag, C-terminal, kept
For the molecule B3, the binding result in experiment [3] is recorded as “binds”.

The stoichiometry N is the number of molecules, sites or subunits per partner or assembly.
